Assay: soluble on expression in E. coli; label from the status in PepcDB or PDB records

Sequence | soluble on expression in E. coli
ENQYVMKLANSLFVQNGFHVNEEFLQMLKMYFNAEVNHVDFSQNVAVANSINKWVENYTNSLLKDLVSPEDFDGVTNLALINAVYFKGNWKSQFRPENTRTFSFTKDDESEVQIPMMYQQGEFYYGEFSDGSNEAGGIYQVLEIPYEGDEISMMLALSRQEVPLATLEPLLKAQLIEEWANSVKKQKVEVYLPRFTVEQEIDLKDILKALGVTEIFIKDANLTAMSDKKELFLSKAVHKSCIEVNEEGSEAAAASGMIAIS | soluble
MSEQITFATSDFASNPEPRCPCILLLDVSGSMNGRPINELNAGLVTFRDELLADPLALKRVELGIVTFGPVHVEQPFTSAANFFPPILFAQGDTPMGAAITKALDMVEERKREYRANGISYYRPWIFLITDGAPTDEWQAAANKVFRGEEDKRFAFFSIGVQGADMKTLAQISVRQPLPLQGLQFRELFSWLSSSLRSVSRSTPGTEVVLEAPKGWTSV | soluble
MGSDKIHHHHHHMATLLLEDGTIESNLDEIARELAPLGVYIKHYDPGTSILFPHLLIQDALTDKEKCHIVDLHNSVFEFIQQENGYLWCDLLNVHPGSPNLQTLIATYAKYHTHTAPEALYVLAGEMIFGFVKPDGSQVQLLVQSQDYLHIPSGVEHWCSLTASLSFKAVRYFTAADGWVPNYTGTQLNDSLNK | not soluble
MGSDKIHHHHHHMTVPPRVSAGEVFQHFRGTSPLTRARLSALTGLSRAATTDRMRTLASRGLIGPANEAPSTGGRPSAQFRLMPNSGAVMSVLLGASEAKVQAFDLSGQPLSAAKPVETVRGGYAAILDSCLASAYSLLDSMDDISGQLVATGVVLDEGAPDLDWPEYFAGRPVVVDSALGAMATAEALSRTPRPQNMLFLDVGKTIGCAVLVHGRTMGGFRTSKEAFGHTPGKGTPTLPCACGIMNCLQAIAGEEAIIAGLSSDLADEPDAISGAVRRSDAAAVSALRQAGRDIGDTLLGSIHLLQPEFITVRTRWPGAADFLLAGLREAIYASGVPAVTENLVLASSTTGSPATGIALRALDAGLAVESVDRLLSAPPNLSGQRNYWPAPLKSIDRQRHAS | not soluble
MSLSDNVDVDVLSLVQNDALEESVAINSMISKARANFSGSLLQFQTRVSSVYGETNEENAVNPLDPEHICKAFSDACIGLDIEIKEKLIVYKQFDRYVMGNLVECLEEANKIMIQAGVMPNLKYTAKKSRVTPRSTSDVSARPLEAQSDANGYDGAGDVFSQVQELLSALRNTASNPEQQQGDPNTGAGGRQAPPPGNVQFIADADLLSILSRLQHSVRTENLAEGPVVALDLRTAVQGLLSEESQKSGKATALDQIDEDLINLVSMLFEFILDDYNLSAPIQVLISRLQIPILKVAIRDKSFFSKPSHPARKLLNALAKAGIGWSDASEKKRDKLYEQIHRAVQRILEEFNGESELFEEIYQEFSQYLSREERKAKLVEQRTKEAEIGRVKSHKAHQVVEQILSEKIAAQPLPPVAVELLRGGWSRVMFLAYLKEDTEHRLNQCTKVVDELTWCLQPHAEVEARQRWVKVVPQLLKNLKAGLKEVSYNSAKLEHMLGELKKALTETFKQQSITSEGHHHHHH | not soluble
MGSDKIHHHHHHMEKRYQIFISSTFIDLKDERQAALKAILEIDHMPAGMELFSATDDSAWQLIQDVIDSSDYYILIVGGRYGSLDEAGLSYTEKEYDYALLTKKPVIPLLHENPDNLPRDKTETDSNAWKKLQDFRKKVQKKHTCVYWRNADDLKAKVIVGLTSAIKRHPAVGWVRADKVPTETALAEVLSLKNKITELEKEAALLRDKPPSGTEFLAQGNDKYEIHLSFKSRGKFSIFSHDEDKKYNASINLTWNAIFAAVAPSMINEASAHTLRQAFTDFFKRESLKAFQSQKRFENYELVDFSFHKDEIETCIVQLRALGLIKENDRKRSVSDTSTYWTLTPYGNTLMVQLRAIKREPLEDEDLDGTAVES | not soluble
MENNTNQENSDALENVSFACIRPEILYFGTPVVLISTIDREGKVNLAPISSAWALGYSVVMGIGTESKTMENLRETGECTLNFPEGALWESVERLAPLTGKYPVPQDKADKFRFESNKFGVAGLTPCDSEVVKPPRVLECRLQMEACVKSVRRISEPDVQAGIVEVKVVRVHARNDLIIDGKYIDPKQWKPLIYSFRHYFTLGCDLGKTFRSKI | not soluble
SSFFGFGQTAEIDIVLNDAETRKKVEHKTEDGKKDKYFLFYDGETVSGKVNVTLKTPGKRLEHYGIKIEFVGQIELYYDRGNHHEFVSLVKDLARPGELSQSQTFDFELTHVEKPYESYTGQNVKLRYFLRATISRRLNDISKEMDIVVQTLCTYPEINSSIKMEVGIEDCLHIEFEYNKSKYHLRDVIVGKIYFLLVRIKIKHMEIDIIKRETTGTGPSVYHENDTIAKYEIMDGAPVRGESIPIRLFLAGYEMTPTMRDINKKFSVRYYLNLVLIDEEERRYFKQQEITLWRKGDIVRRSMSQQATIAAQRYEGSNPEPTSAQAKEETD | soluble
MSLDRVEVLGVEFVEFTADQTEAEALGSLLGAMGFRAVASHREKAVTLWRQGCDHRGINVVINTEQKGFAHSSYLVHGASAYAIGLKVPDASAAVERARALGAEIFLPESGEGEGAMAAIRGMGGGLIYFVDEIDDVWSREFVAPGDDRQPAATLVAIDHVAQSMKEEQLPSWLLFYTSILDADKLAQVDIVDPAGLVRSQVVENASGTLRLTLNGADNHREGHHHHHH | not soluble
MKALSKLKAEEGIWMTDVPVPELGHNDLLIKIRKTAICGTDVHIYNWDEWSQKTIPVPMVVGHEYVGEVVGIGQEVKGFKIGDRVSGEGHITCGHCRNCRGGRTHLCRNTIGVGVNRPGCFAEYLVIPAFNAFKIPDNISDDLAAIFDPFGNAVHTALSFDLVGEDVLVSGAGPIGIMAAAVAKHVGARNVVITDVNEYRLELARKMGITRAVNVAKENLNDVMAELGMTEGFDVGLEMSGAPPAFRTMLDTMNHGGRIAMLGIPPSDMSIDWTKVIFKGLFIKGIYGREMFETWYKMAALIQSGLDLSPIITHRFSIDDFQKGFDAMRSGQSGKVILSWD | soluble
MAHHHHHHMLYSSIRYGRNCTGTNETVKPLGPCVTPLGTILGVFNGVFGYSNCNDSYVSTELRYINLTVPELNNETGQLTYISKQFYTGLAWQCVEYARRYWMQRGTPQPAYFDSVLGAADVWNLTFVRLLSNASITLPLRRYWNGDRVTDNHQIPAIGDIIIYPVQDGGFPYGHVAVIANVELSTHGAIYVAEQNWANAVWSSPHHNYTRRIPMFYDMLTSTITLDDSEHQIIGWMRYG | not soluble
MHDHMITFQLATHFLSRIALRLEYLFKTINEACNESHEVIHRFALKNIIEIVEIVEKPELKSRFIKELIRIEHVLKKANLLNHSELFDDLETQIHVLNHVPGRFSNKIHDDEFLKTLRQIHHPNTKECEFNSPHLVLWFDSDPLMRQKTISQWVSCLKDLEDTVKIYLSLLRGVTQYTPIRANNGFYQHSLSPKSLNHLILLRIDKKLKMIPKIQLGHHSLTIRLYELVTGQEIRDKTIEMEIAFCQI | not soluble
MNKKNKFFDIYLELEQDITSGVYPAGTLLPSENVLAKRFSVSRETIRKALVLLLENGCIQKLQGKGSIVIDRERYSFPVSGLTSFKELQKSEQMNATTEVIRNEETTLPDRIADFAGLPHGSNCLAILRVRYLEGEATILDYDYLLDKTEPIANEILEDSLYQYLENEKGYEISYAQKEITVEPLNAEDKKYLALHGDTHVVVVKSTVFLKDTTLFQYTESRHRLDKFRFIDFARRR | not soluble
MSLSRQIRYYGTGTEKVEEELQDLLPDANIIRMDNDTTRKKGAHAKLLAQFGSGEADILIGTQMIAKGLDFPNVTLVGVLNADTALGLPDFRASERTFQLLTQVSGRAGRAEKSGHVYIQTFNPDHYAIRFAQHHDYEGFFKYEMQMRHRGGYPPYYFTVQITASDLDEGVAAKRMYQLLQWLRPRLAPSTILLGPTPKPIARVNRRYYYQIVIKYKQEPNLAQTLTTLLHETQAQQRQGLQIGIDVEPLHFMEGHHHHHH | not soluble
MSPGSSTGMVSEKCGDAESKRAPYPPPLRLARRVCYPQYTQKSLDMRAQEKLVGRKRDMKMARFLAKQAKESKEMVKKAAKETTEKTTKNDSTV | not soluble
MKEVIAQNAKLSADDLKEILPKANKLEDFAFEKNEDSTISEVFQAKNGSENEGYIIKVSPKGFNGPIDMVVAIDKNREISGVKVLSQAETPGLGAKVEESSFSEKFKGLTIEDNIKIVKTSPSSQGEIQGITGATISSNAVSSGINDAISFYKENVLGEDLSKEKILNLSKINLEGDLKELTIELEEGIDKVSIVSNGEKEIGYAIEASEVGMYEEKPIKFALGISTGGIITGVQIIDHKETAGLGDLIEDENFLNSFIGVSSLDKLSVKENTNEIDLSVYGEVVNVDSISGATKSSMAIIKGITNVINFYNNNLSLEHHHHHH | soluble
MSRNMFKLAHISDVHLGPLPRLSIQELFSKRITGFVNWHRNRRKHLFASTLDLLLDDIRTHRADHLAVTGDLVNLASGIEIRAAAAWLRALGDPADTSVVPGNHDAYVPGAYEKSMRAWYDYVRGDLAPPQWQEDRRIFPYLRVRDKVAIVGCSTAVATPPFAASGFFSARQARDTVNMLRAAGEAGLFRVVMIHHPPIRGATAFHKRMIGIRRFAAVISTGGAELVLHGHTHLNTLHWLRGQVQPVPVVGIASASQGPGSIKPPAAYNLFSIDGAPGAWELEHHHHHH | soluble
MDDRGGSFVAVRRISQGLERGSVYHSSSAEVVAGSAAWLGRGLSCVCVQGRDGDPRPSFDLTPAQEECLQRLQSRIDVAYDSSIPQHQEALKDLWKLAFPEEELHGIVSDQWKEMGWQGKDPSTDFRGGGFISLENLLYFARKFPKSFHGLLRKQVGDRSVWEYPFAVAGINITFMLIQMLDLEAVNESAFDLLYCIAFKLMDQQWLSMRASYMEFNTVMKSTRRQLEREIMIEDITSLEDLPSYSLLSQ | soluble
MGSDKIHHHHHHMSDSTTPETIIVIGASSLMAQAFIAKTFTQQAYTDQTVIQQASSQQSKRHDTSPLQIITVSRQNKLILHDLTDNISHHHFSCDYQQASIEQCVTNIAAIAGKVTRIVMCNGILHSKNPQSADSILGPHSANDSTLMPEKRIEDIDALSLEQLFYANSIVPMLWLSALTSLLSLPRHKVAGEQKCVISILSARVGSISDNRLGGWYGYRASKAALNMLIKTTAVEYARRLKRVKLIAFHPGTTDTPLSKPFQANVPAGKLFTPEFVASQLYNIMADIEPNGEASYLDWQGKEISW | not soluble
MKKIAIIGGGIIGMTLANYLDPQKFDITVYDEGLGQATKASAGIISPWLSKRRNKKWYQLAREGAALFPKLVKDFQLTEDIYRQSGTVILRPAAALADLAHLAEERKQTAPEIGEITMLSAVQTAKFLPLLKETPSLFISGGGRLDGPAYLNHLQKRAEAKGVTFCSQRAHFRQLNQGWEIVTNSEKKSVDFLALTPGPHLKELLTTLNLSVDIRPQKGQLLVFETPFTNSQQWPVAMLDGEADLIPFNQGKILLGATHENEQAWDLEETVSAFQQLTSGTAPFLKEAEQLFKQPMHYRVGTRAYTSDFAPFFGPLPEMPHLVVASGLGSSGLTTGPFIGYQLAEYFNTGAFKGELYQKPLSQYVKNNPSLLEHHHHHH | soluble
